Test results: publication PMC11642874 (bioRxiv, 2024)
Values belong to the binder of their own block, whether it stands above or below them.

Legend:
[1] = molecular target: POLRMT Δ42;TFAM Δ42;TFB2M Δ41, Alexa488 (human;human;human, UniProt O00411;Q00059;Q9H5Q4 43-1230;43-246;42-396, ||); experiment: fluorescence polarization
[2] = molecular target: T1, POLRMT-LSPDNA(−42to+9)-TFAM (P-D-T) complex (human, UniProt O00411 43-1230; Q00059 43-245); experiment: fluorescence polarisation
[3] = molecular target: Human mitochondrial RNA polymerase (POLRMT) Δ42 (human, UniProt O00411 43-1230); experiment: cryo-EM structure
Human mitochondrial RNA polymerase (POLRMT) Δ42, sequence (O00411 43-1230, stated change not applied): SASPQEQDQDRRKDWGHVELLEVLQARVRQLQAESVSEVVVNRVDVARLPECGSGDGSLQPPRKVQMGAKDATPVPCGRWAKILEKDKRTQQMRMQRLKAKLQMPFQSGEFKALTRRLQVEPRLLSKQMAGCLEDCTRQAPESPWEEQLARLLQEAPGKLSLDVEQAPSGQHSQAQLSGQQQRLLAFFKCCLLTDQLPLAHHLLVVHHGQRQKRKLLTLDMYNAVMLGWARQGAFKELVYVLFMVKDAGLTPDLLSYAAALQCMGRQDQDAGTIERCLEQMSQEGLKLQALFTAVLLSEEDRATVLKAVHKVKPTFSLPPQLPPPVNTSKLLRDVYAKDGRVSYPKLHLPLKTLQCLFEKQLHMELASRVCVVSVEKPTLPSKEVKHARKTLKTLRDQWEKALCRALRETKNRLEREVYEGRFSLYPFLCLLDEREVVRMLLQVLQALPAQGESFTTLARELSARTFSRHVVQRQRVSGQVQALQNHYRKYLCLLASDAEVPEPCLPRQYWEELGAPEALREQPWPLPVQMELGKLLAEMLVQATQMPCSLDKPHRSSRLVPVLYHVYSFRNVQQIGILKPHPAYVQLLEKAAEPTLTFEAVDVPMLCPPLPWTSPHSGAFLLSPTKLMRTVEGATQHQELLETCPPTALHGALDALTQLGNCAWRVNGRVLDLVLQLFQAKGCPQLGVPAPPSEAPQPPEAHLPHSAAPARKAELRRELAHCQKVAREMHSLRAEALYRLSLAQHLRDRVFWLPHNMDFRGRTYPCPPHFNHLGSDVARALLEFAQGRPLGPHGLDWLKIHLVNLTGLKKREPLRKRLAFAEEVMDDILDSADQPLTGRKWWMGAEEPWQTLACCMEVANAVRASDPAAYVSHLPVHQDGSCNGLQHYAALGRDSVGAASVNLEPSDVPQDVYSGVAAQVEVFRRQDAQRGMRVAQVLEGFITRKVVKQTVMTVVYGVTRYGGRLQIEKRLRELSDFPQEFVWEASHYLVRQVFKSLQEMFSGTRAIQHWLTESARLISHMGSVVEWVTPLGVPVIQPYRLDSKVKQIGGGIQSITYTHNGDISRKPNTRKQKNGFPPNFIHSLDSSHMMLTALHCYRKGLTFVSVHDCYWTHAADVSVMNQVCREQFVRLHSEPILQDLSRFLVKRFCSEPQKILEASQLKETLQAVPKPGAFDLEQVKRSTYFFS

[4] = molecular target: T1, POLRMT-LSPDNA(−42to+9)-TFAM (P-D-T) …; experiment: fluorescence polarisation; remark: listed apart in the source
[5] = molecular target: POLRMT Δ42;TFAM Δ42;TFB2M Δ59 (human;human;human, UniProt O00411;Q00059;Q9H5Q4 43-1230;43-246;60-396, ||); experiment: SEC and DLS
POLRMT Δ42;TFAM Δ42;TFB2M Δ59, sequence (O00411 43-1230, stated change not applied, one chain of several): as the sequence (O00411 43-1230, stated change not applied) above

POLRMT Δ42;TFB2M Δ59 = POLRMT Δ42;TFB2M Δ59 (human;human, UniProt O00411;Q9H5Q4 43-1230;60-396, |); experiment: cryo-EM structure 3.15 A
POLRMT Δ42;TFB2M Δ59, sequence (O00411 43-1230, stated change not applied, one chain of several): as the sequence (O00411 43-1230, stated change not applied) above

T1 sequence (O00411 43-1230, one chain of several): as the sequence (O00411 43-1230, stated change not applied) above
POLRMT Δ42;TFAM Δ42;TFB2M Δ41, Alexa488, sequence (O00411 43-1230, stated change not applied, one chain of several): as the sequence (O00411 43-1230, stated change not applied) above

B1: LSP -42 to +9 duplex (dsDNA)
DNA 1: TGTGTTAGTTGGGGGGTGACTGTTAAAAGTGCATACCGCCAAAAGATAAAA
DNA 2: TTTTATCTTTTGGCGGTATGCACTTTTAACAGTCACCCCCCAACTAACACA
Kd [1]: 6.1 nM

Kd [2]: 6.1 nM
B2: Alexa488-Δ41 TFB2M (natural protein, human, UniProt Q9H5Q4 42-396, looked up)
chain: CGLSDSSPQLWPEPDFRNPPRKASKASLDFKRYVTDRRLAETLAQIYLGKPSRPPHLLLECNPGPGILTQALLEAGAKVVALESDKTFIPHLESLGKNLDGKLRVIHCDFFKLDPRSGGVIKPPAMSSRGLFKNLGIEAVPWTADIPLKVVGMFPSRGEKRALWKLAYDLYSCTSIYKFGRIEVNMFIGEKEFQKLMADPGNPDLYHVLSVIWQLACEIKVLHMEPWSSFDIYTRKGPLENPKRRELLDQLQQKLYLIQMIPRQNLFTKNLTPMNYNIFFHLLKHCFGRRSATVIDHLRSLTPLDARDILMQIGKQEDEKVVNMHPQDFKTLFETIERSKDCAYKWLYDETLEDR
modifications: Alexa Fluor 488 C5 maleimide label (labelling efficiency ~76%)

binding result [3]: binds
B3: Human mitochondrial transcription factor A (TFAM) Δ42 (natural protein, UniProt Q00059 43-245, looked up)
chain: SSVLASCPKKPVSSYLRFSKEQLPIFKAQNPDAKTTELIRRIAQRWRELPDSKKKIYQDAYRAEWQVYKEEISRFKEQLTPSQIMSLEKEIMDKHLKRKAMTKKKELTLLGKPKRPRSAYNVYVAERFQEAKGDSPQEKLKTVKENWKNLSDSEKELYIQHAKEDETRYHNEMKSWEEQMIEVGRKDLLRRTIKKQRKYGAEE

binding result [3]: binds
B4: Human transcription factor 2 (TFB2M) Δ59 (natural protein, UniProt Q9H5Q4 60-396, looked up)
chain: PPRKASKASLDFKRYVTDRRLAETLAQIYLGKPSRPPHLLLECNPGPGILTQALLEAGAKVVALESDKTFIPHLESLGKNLDGKLRVIHCDFFKLDPRSGGVIKPPAMSSRGLFKNLGIEAVPWTADIPLKVVGMFPSRGEKRALWKLAYDLYSCTSIYKFGRIEVNMFIGEKEFQKLMADPGNPDLYHVLSVIWQLACEIKVLHMEPWSSFDIYTRKGPLENPKRRELLDQLQQKLYLIQMIPRQNLFTKNLTPMNYNIFFHLLKHCFGRRSATVIDHLRSLTPLDARDILMQIGKQEDEKVVNMHPQDFKTLFETIERSKDCAYKWLYDETLEDR

binding result [4]: binds
B5: Human transcription factor 2 (TFB2M) SGG-AAA (natural protein, UniProt Q9H5Q4 60-396, looked up)
chain: PPRKASKASLDFKRYVTDRRLAETLAQIYLGKPSRPPHLLLECNPGPGILTQALLEAGAKVVALESDKTFIPHLESLGKNLDGKLRVIHCDFFKLDPRAAAVIKPPAMSSRGLFKNLGIEAVPWTADIPLKVVGMFPSRGEKRALWKLAYDLYSCTSIYKFGRIEVNMFIGEKEFQKLMADPGNPDLYHVLSVIWQLACEIKVLHMEPWSSFDIYTRKGPLENPKRRELLDQLQQKLYLIQMIPRQNLFTKNLTPMNYNIFFHLLKHCFGRRSATVIDHLRSLTPLDARDILMQIGKQEDEKVVNMHPQDFKTLFETIERSKDCAYKWLYDETLEDR

B6: LSP -43 to +13, -4 to +1 bubble (56 bp) (dsDNA)
DNA 1: ATGTGTTAGTTGGGGGGTGACTGTTAAAAGTGCATACCGAACAAAGATAAAATTTG
DNA 2: CAAATTTTATCTCCAGGCGGTATGCACTTTTAACAGTCACCCCCCAACTAACACAT
binding result [5]: binds

B7: LSP bubble with pppGpGpA RNA (slipped IC3) (mixed)
DNA 1: ATGTGTTAGTTGGGGGGTGACTGTTAAAAGTGCATACCGAACAAAGATAAAATTTG
DNA 2: CAAATTTTATCTCCAGGCGGTATGCACTTTTAACAGTCACCCCCCAACTAACACAT
?: GGA
modifications: RNA 5' triphosphate
binding result (POLRMT Δ42;TFB2M Δ59): binds

binding result [4]: binds
B8: Human transcription factor 2 (TFB2M) Y209A (natural protein, UniProt Q9H5Q4 21-396, looked up)
chain: GRFCILGSEAATRKHLPARNHCGLSDSSPQLWPEPDFRNPPRKASKASLDFKRYVTDRRLAETLAQIYLGKPSRPPHLLLECNPGPGILTQALLEAGAKVVALESDKTFIPHLESLGKNLDGKLRVIHCDFFKLDPRSGGVIKPPAMSSRGLFKNLGIEAVPWTADIPLKVVGMFPSRGEKRALWKLAADLYSCTSIYKFGRIEVNMFIGEKEFQKLMADPGNPDLYHVLSVIWQLACEIKVLHMEPWSSFDIYTRKGPLENPKRRELLDQLQQKLYLIQMIPRQNLFTKNLTPMNYNIFFHLLKHCFGRRSATVIDHLRSLTPLDARDILMQIGKQEDEKVVNMHPQDFKTLFETIERSKDCAYKWLYDETLEDR

binding result [4]: binds
B9: Human transcription factor 2 (TFB2M) (GS)3-loop (natural protein, UniProt Q9H5Q4 21-396, looked up)
chain: GRFCILGSEAATRKHLPARNHCGLSDSSPQLWPEPDFRNPPRKASKASLDFKRYVTDRRLAETLAQIYLGKPSRPPHLLLECNPGPGILTQALLEAGAKVVALESDKTFIPHLESLGKNLDGKLRVIHCDFFKLDPGSGSGSGPPAMSSRGLFKNLGIEAVPWTADIPLKVVGMFPSRGEKRALWKLAYDLYSCTSIYKFGRIEVNMFIGEKEFQKLMADPGNPDLYHVLSVIWQLACEIKVLHMEPWSSFDIYTRKGPLENPKRRELLDQLQQKLYLIQMIPRQNLFTKNLTPMNYNIFFHLLKHCFGRRSATVIDHLRSLTPLDARDILMQIGKQEDEKVVNMHPQDFKTLFETIERSKDCAYKWLYDETLEDR
